Measured values published in the supplement of paper PMC12764529.

Experiment: folding stability dG unfold (combined trypsin and chymotrypsin); higher = more stable
Method: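 Folding stability of de novo designed mini-proteins (<80 aa, no Cys; designed by TrROS, TrMRF, ProteinMPNN and the joint model) was measured by cDNA display proteolysis with trypsin and chymotrypsin. Each protease was used at 11 concentrations in a threefold dilution series plus a no-protease condition. K50 was inferred by Bayesian fitting of sequencing counts, and dG unfold was derived against a sequence-predicted unfolded-state K50 (Tsuboyama et al. method). Sequences shown include variable-length N-terminal GS-type padding (SAGGSAGG...) inside a display construct carrying a PA tag. Rows were kept only if the AF2 dimer inter-PAE was >15, to exclude likely homo-oligomers.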

Folding stability dG unfold, < -1 kcal/mol:
SAGGSAGGMELVTLPVVTTEEVPVPPVTKTLPNGTRETVPQPPVTVVRETVLLTTPEEAAALLRSAGGSAGG [r6_120_JUSTAS], SAGGSAGGMKKEKFGDSIRYTFPVDPNTSVEEIKKEIEKIPGVKDISKVKITPSPSNKLLVYVKSAGGSAGG [r6_516_JUSTAS], SAGGSAGGMKVTFDDGVEETLNLTEEEAKAWAESRPDRKMTRIEKEPPEKLSPENLTPEAIKLKSAGGSAGG [r6_881_JUSTAS], SAGGSAGGMPESAPPVPLPTSTVPLSEARAAGIEVPPGSERVIRTPSGVTYRISSATGTVTVVGSAGGSAGG [r6_275_JUSTAS], SAGGSAGGMPPDTYVTEVVTTTSNVLGGKDIFRTIVKTTKILPVIEHPAGDGFTLVPPDTPGLESAGGSAGG [r6_405_JUSTAS], SAGGSAGGPRRISLMYKFSPDDGEMEPPSIEDLAKKFFPGAEPKNIDIEHNPNNGYMQVEIPIKSAGGSAGG [r6_81_TrROS], SAGGSAGGSAAPKPVTVEKTIKVPGNDPEKVKKELEPKGWKVLGVDKNTVKAKITLPPGYKKSAGGSAGGSA [r18_168_JUSTAS], SAGGSAGGSADPQKVKEIAEKLQEKGYTVDVDRGPDSWTIRVENPKSGGKKKHKIDDPEDVLSAGGSAGGSA [r18_278_TrROS], SAGGSAGGSAGDIDIKVEYNKENGMYRVRASFPDGKEVPIWMPPGQTPEEAKDQAKELLKSAGGSAGGSAGG [r17_161_TrROS], SAGGSAGGSAGDLPPGKEIEIMMSTPEWADEFADNFPNAKIKIEPMPPKPKYDPETGKGYSAGGSAGGSAGG [r17_126_TrROS], SAGGSAGGSAGEIEIEFEPGEEFLDFIKNLPGPIESIEIEPIDPDKVRARLKLNIPEDLASAGGSAGGSAGG [r11_143_TrMRF], SAGGSAGGSAGEPGFTVRVLKKDLPTGEFSEVEIEVPASVPLEEVIEALDPDQVVAVEVESAGGSAGGSAGG [r11_386_TrMRF], SAGGSAGGSAGEPIPFRIKVELPGNGREQEIDFPIKTPSEANEIANQLPPGFKRVKIEWYSAGGSAGGSAGG [r11_25_TrROS], SAGGSAGGSAGERYYMVEIQPKNGRRIKIMIPDDPEKAVKKARELFPDYEVEVEPMKKPPSAGGSAGGSAGG [r11_850_TrROS], SAGGSAGGSAGGADVPVAELEARGLGREALIAELGEDVTVTTEEHAPGAPVYRLTPLASSAGGSAGGSAGGS [r10_855_JUSTAS], SAGGSAGGSAGGALLLFEEGRRLRYETPEEAEELAAAVRAESGRPDLRISLRELSPEELPSAGGSAGGSAGG [r7_839_JUSTAS], SAGGSAGGSAGGDLEIHIPPGMDPAQADNFAKMFGLKNIKIEPVPPVKPRVYTKNGEPDSAGGSAGGSAGGS [r10_1083_TrROS], SAGGSAGGSAGGDNIMIKIRNPGKPRTFMIKDPEQLKNMSLKELADELVDKHGWPVEIYPSAGGSAGGSAGG [r7_259_TrROS], SAGGSAGGSAGGFKIEGNPMPDDDGPYWHIEVTHWRYNGGGPRPRKRTIMIKDPEDAKEFSAGGSAGGSAGG [r7_896_TrROS], SAGGSAGGSAGGFVGTLKDYPKILKAAKEVGLKVGKIDPKNNKIYVDPSNPEKLKKAIESSAGGSAGGSAGG [r7_285_TrMRF], SAGGSAGGSAGGGGKKKREISIMFEGGTPSDFKREAREIANSPENKDNVDEVEITMMPGSAGGSAGGSAGGS [r10_351_TrROS], SAGGSAGGSAGGGLDDVPEEELRKILEEHGLPPEEVPPDTEVTLELPEGKPIKVRMTGRSAGGSAGGSAGGS [r10_623_JUSTAS], SAGGSAGGSAGGGYRLVTTTERRTLVYREYDPTTDRFRPVKPVPTTIETTLLAPEDELLSAGGSAGGSAGGS [r10_610_JUSTAS], SAGGSAGGSAGGKITEVDTSNNMVEITLKHPGGKRERPIDPGKTMAQILDELKENPDLVISAGGSAGGSAGG [r7_373_TrROS], SAGGSAGGSAGGKKIKIVKVEPGKVKFSLGKKGKNIPGFEKEVKVEVYEIETDLEPLLNSAGGSAGGSAGGS [r10_654_TrMRF], SAGGSAGGSAGGKKQTLVIRSDNKPIPIEYDDDNIKISNPNGKKQEIPPEDLPPDGIEPVSAGGSAGGSAGG [r7_748_TrROS], SAGGSAGGSAGGKLRIFYPNPWQARWRAKTIQNEMMDNGYKIPPNVEIEIHPMRPDPGDWSAGGSAGGSAGG [r7_965_TrROS], SAGGSAGGSAGGKRHRIDNIEPFNNDGEKLYRIRMPGGKEQRFPVGEEFTPNGAEIEPLPSAGGSAGGSAGG [r7_931_TrROS], SAGGSAGGSAGGMKVIPIYSPGKGSKEEIIELVKKKNPNVKKVEVTYNPEEDVATVTIESAGGSAGGSAGGS [r10_225_JUSTAS], SAGGSAGGSAGGMPVSFEELKKLPPNTVLIFSDGTVVTAPEEEVKKPFGKEKIVYVEEKPSAGGSAGGSAGG [r7_643_JUSTAS], SAGGSAGGSAGGMTIRVVPVEITPDSSGVLRRDIEEVAAANPDAEVLETTPTSVLVRYKRSAGGSAGGSAGG [r11_771_JUSTAS], SAGGSAGGSAGGPELGEIEPGPDGYLYVNLKVELPVELPGPDGKGTGPVEGTVRLKVGLSAGGSAGGSAGGS [r10_92_TrMRF], SAGGSAGGSAGGPEWKEIDIPFDTPEDAIDEAEDKLPPDDKIDVHNPDDGQPITFTVPRNSAGGSAGGSAGG [r7_877_TrROS], SAGGSAGGSAGGPIKVETEPYPDGYHRVEIMLPGNGQKKEIHFPNGQTPEQAKDWIKEWSAGGSAGGSAGGS [r10_825_TrROS], SAGGSAGGSAGGPKEIPIKIKIYPPNGRKRERPVPLKSEEQALDQLQEAMPPGWFIEIWSAGGSAGGSAGGS [r10_145_TrROS], SAGGSAGGSAGGPPIPIRIKLEHPDNGKKHTHEFPPGMSLKEVKNYMEKHPGYKIKDIEISAGGSAGGSAGG [r7_624_TrROS], SAGGSAGGSAGGPPPSLPYELDKKVIEKLVKYPEDKLKPVEIKEIETSLFNPLTGTWLDSAGGSAGGSAGGS [r10_248_JUSTAS], SAGGSAGGSAGGPPVPYKIKSPNGRPFPVQINPDSGQIEIEFPGETRKIPLGMNWEIEPVSAGGSAGGSAGG [r7_434_TrROS], SAGGSAGGSAGGPRVTGTPVPGDDEPLLVVEREYTVEVGGGPRPVRVRFVFDHPDEALRSSAGGSAGGSAGG [r7_896_TrMRF], SAGGSAGGSAGGQIRDPDGRKWIRVKGASPNKIKDELSELNPNVEIITNPDPNEMWIRIPSAGGSAGGSAGG [r7_370_TrROS], SAGGSAGGSAGGRVKKDVTVRYRLTVRNPVTGKTTERTLTVHVPVLVDEEAELPPLSEVSAGGSAGGSAGGS [r10_1026_TrMRF]
